From paper PMC6032367, “A peptide‐display protein scaffold to facilitate single molecule force studies of aggregation‐prone peptides” (Protein Science : A Publication of the Protein Society, 2018)

Tests used:
[1] = biological target: pL αSyn71–82 (protein L W47Y I60F N14C scaffold with αSyn residues 71–82 inserted in the extended β3‐β4 loop); assay: native MS; ESI–MS of 100 μM pL constructs in 100 mM ammonium acetate pH 6.8, equal volumes mixed for heterodimers; after quiescent incubation for 4 h at 25°C
[2] = biological target: pL αSyn71–82 (protein L W47Y I60F N14C scaffold with αSyn residues 71–82 inserted in the extended β3‐β4 loop); assay: dynamic force spectroscopy (AFM); pL αSyn71–82 on AFM tip and surface; retraction speeds 200 to 5000 nm s^-1; Bell‐Evans fit, dissociation rate constant in the absence of force; 20 mM HEPES pH 7.5, room temperature
[3] = biological target: pL αSyn71–82 (protein L W47Y I60F N14C scaffold with αSyn residues 71–82 inserted in the extended β3‐β4 loop); assay: single molecule force spectroscopy (AFM); pL constructs coupled through Cys14 to maleimide‐PEG on both the AFM tip and the surface; retraction 1 μm s^-1 (1000 nm s^-1), approach 2 µm s^-1; 20 mM HEPES pH 7.5, room temperature; triplicate
[4] = biological target: pL γSyn71–82 (protein L W47Y I60F N14C scaffold with γSyn residues 71–82 inserted in the extended β3‐β4 loop); assay: native MS; ESI–MS of 100 μM pL constructs in 100 mM ammonium acetate pH 6.8, equal volumes mixed for heterodimers; after quiescent incubation for 4 h at 25°C
[5] = biological target: T1, αSyn71–82 synthetic peptide; assay: cell-based or functional assay
T1 peptide: Ac-VTGVTAVAQKTV-NH2

[6] = biological target: the molecule itself; assay: native MS; ESI–IMS–MS of synthetic peptides alone and in a 1:1 mixture; 100 μM final in 100 mM ammonium acetate pH 6.8
[7] = biological target: T2, αSyn71–82 synthetic peptide; assay: as above; details: remark: other sources report otherwise
T2 chain: VTGVTAVAQKTV

Molecule: pL αSyn71–82 (protein L W47Y I60F N14C scaffold with αSyn residues 71–82 inserted in the extended β3‐β4 loop)
- stoichiometry N [1]: < 3
- koff [2]: 0.18 s⁻¹
- lifetime [2]: 6 s
- hit rate [3]: 4%
- rupture force (F R) [3]: 57 pN

Molecule: pL γSyn71–82 (protein L W47Y I60F N14C scaffold with γSyn residues 71–82 inserted in the extended β3‐β4 loop)
- stoichiometry N [4]: 2
- hit rate (frequency of detection) [3]: 3.2%
- rupture force (F R) [3]: 53 pN

B1: γSyn71–82 synthetic peptide (peptide)
peptide: Ac-VSSVNTVATKTV-NH2
notes: γ‐synuclein, central NAC region, residues 71–82; also called central NAC region of γSyn; source: bought: Genscript, synthetic peptide, >99% purity
- increase in lag‐time of ThT fluorescence of the 1:1 peptide mixture compared with αSyn71–82 alone [5]: 2.5 fold
- increase in lag‐time of ThT fluorescence of the 1:1 peptide mixture compared with γSyn71–82 alone [5]: 5.7 fold
- stoichiometry N [6]: ≤ 14

Molecule: Ac-VTGVTAVAQKTV-NH2 [αSyn71–82 synthetic peptide]
- stoichiometry N [7]: < 14
